{"source": "patent US20260049134A1", "binders": {"B1": {"name": "HW-28 chimeric rabbit-human IgG1 LA/LA/PG (antibody, V domains shown)", "VH": "QKQLVESGGRLVTPGTPLTLTCTASGFSLSSNAMSWVRQAPGEGLQWIGTISSGGSTYYASWAKGRFTISKTSTTVTLKMTSLTTEDTATYFCARGADLHRLWGPGTLVTVSS", "VL": "SFVLTQPASVQVNLGQTVSLTCTGKPLSRSFASWYQQKPGQAPVLVIYRDTSRPSGVPDRFSGSSSGNTATLTISGAQAGDEADYYCATSDGSGSSYQYVFGGGTQLTVTG"}}, "molecular_target": "SELL (L-Selectin)", "sequence (chain, as listed by the source limits assumed)": "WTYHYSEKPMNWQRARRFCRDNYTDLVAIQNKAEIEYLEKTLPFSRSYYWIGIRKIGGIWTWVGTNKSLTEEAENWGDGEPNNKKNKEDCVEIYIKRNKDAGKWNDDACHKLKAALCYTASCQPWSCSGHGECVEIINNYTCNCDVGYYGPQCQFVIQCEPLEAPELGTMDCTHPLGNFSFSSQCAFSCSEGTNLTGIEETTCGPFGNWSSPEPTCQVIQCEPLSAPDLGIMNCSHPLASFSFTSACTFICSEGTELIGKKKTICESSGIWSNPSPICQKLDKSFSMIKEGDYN", "test": "ELISA on coated SELL-Fc-His, 150 ng IgG1; None 0.096"}
{"binder": "B1", "values": [{"measurement": "ELISA Absorbance (405 nm-570 nm)", "result": 0.188}]}
